WO2011083140A1 (dated 2011)
Several values for one entry are separate records, joined by “and”; a condition that tells them apart may be missing. Equal values may be shown once.

B1: 4CXCR014A02 (VHH)
VHH: EVQLVESGGGLVQAGGSLRLSCVASGISSSIRNMGWYRQAPGKQRESVATISSGGNKDYTDAVKDRFTISRDTTKNTVYLQMSSLKPEDTAVYYCKIEAGTGWATRRGYTYWGQGTQVTVSS
notes: also called 14A2; not shown: C-terminal c-myc tag and His6 tag
B2: 4CXCR015A01 (VHH, not shown: small tags and cut ends)
VHH: EVQLVESGGGLVQAGGSLRLSCAASGRTFSRAAMGWFRQAPGKEREFVGCALSSAGSALTADSVKGRFTISRDNAKNMVYLQMNNLKPEDTAVYSCVAGGYCTRAGVYPYWGQGTQVTVSS
notes: also called 15A1; P4CXCR15A01
B3: 4CXCR015H03 (VHH)
VHH: EVQLVESGGGSVQTGGSLRVSCAASGLSFNTYTMGWLRQAPGKEREFVAVINWNGDRTNYADSVKGRFSVSRDNAKNTVFLQMNSLRPEDTAVYYCAARPRFTAEPMTSRRYQYWGRGTQVTVSS
notes: also called 15H3; P4CXCR15H3; not shown: C-terminal c-myc tag and His6 tag
B4: 4CXCR281E10 (VHH)
VHH: EVQLVESGGGLVQAGGSLRLSCKASGGTFNNYAMGWFRRAPGKEREFVAAITRSGVRSGVSAIYGDSVKDRFTISRDNVKNTLYLQMNTLKPEDTAVYTCAASAIGSGALRRFEYDYSGQGTQVTVSS
notes: Family member of 238D4 (family 17); also called P4CXCR281E10; not shown: C-terminal c-myc tag and His6 tag
B5: 4CXCR010E09 (VHH)
VHH: EVQLVESGGGLVQTGGSLRLSCAASGRTFSSYAMGWFRRAPGKEREFVATISWRGDRKYYSESVKDRFTIARGRSNKNAVYLQMNSLKPEDTAVYYCAKDRAPYGSGSPDVKQYEHWGQGTQVTVSS
notes: Monovalent Nanobody from E. coli; also called 10E9; P4CXCR10E09; not shown: C-terminal c-myc tag and His6 tag
B6: 4CXCR010G10 (VHH)
VHH: EVQLVESGGGLVQAGGSLRLSCAASGRTFNSYAMAWFRQAPGKERENVAAIRWSGGRATKYADSVRGRFTISKDNAKNTVYLQMSSLKPEDTAVYYCATQTYYRSGLASTRDFDSWGQGTQVTVSS
modifications: Alexa-647 label in the competition FACS of D-2
notes: also called P4CXCR10G10; not shown: C-terminal c-myc tag and His6 tag
B7: 4CXCR010E12 (VHH)
VHH: EVQLVESGGGLVQAGGSLRLSCAVSGRTFTSYDMAWFRQAPGKERESVAAIRWTGSSTYYADSVKGRFTISRDNAKSTVYLQMNSLKPEDTAVYYCAARDTGRYRSRTYDYWGQGTQVTVSS
notes: also called P4CXCR10E12; not shown: C-terminal c-myc tag and His6 tag

Legend:
human CXCR4 [1] = target: T1, human CXCR4 (human, UniProt P61073 1-352); experiment: cell-based or functional assay
human CXCR4 [2] = target: T1, human CXCR4; experiment: binding to CXCR4 VLP, Table C-3
human CXCR4 [3] = target: T1, human CXCR4; experiment: binding to Caki-CXCR4 cells, Table C-3
human CXCR4 [4] = target: T1, human CXCR4; experiment: SDF-1 displacement (competition with SDF-1 for CXCR4), Table C-3
CXCR4 V196E = target: T2, CXCR4 V196E (human, UniProt P61073 1-352); experiment: flow cytometry on transiently transfected HEK293T cells, Myc-tag detection
T2 construct: whole, on cells

CXCR4 D187V = target: T3, CXCR4 D187V (human, UniProt P61073 1-352); experiment: as above
T3 construct: whole, on cells; Printed as Dl 87V in this copy

CXCR4 F189V = target: T4, CXCR4 F189V (human, UniProt P61073 1-352); experiment: as above
T4 construct: whole, on cells

mouse CXCR4 = target: T5, mouse CXCR4 (mouse, UniProt P70658 1-359); experiment: binding FACS on murine BaF-3 cells, anti-myc detection
T5 construct: whole, on cells; also called mCXCR4
T5 sequence (P70658 whole entry): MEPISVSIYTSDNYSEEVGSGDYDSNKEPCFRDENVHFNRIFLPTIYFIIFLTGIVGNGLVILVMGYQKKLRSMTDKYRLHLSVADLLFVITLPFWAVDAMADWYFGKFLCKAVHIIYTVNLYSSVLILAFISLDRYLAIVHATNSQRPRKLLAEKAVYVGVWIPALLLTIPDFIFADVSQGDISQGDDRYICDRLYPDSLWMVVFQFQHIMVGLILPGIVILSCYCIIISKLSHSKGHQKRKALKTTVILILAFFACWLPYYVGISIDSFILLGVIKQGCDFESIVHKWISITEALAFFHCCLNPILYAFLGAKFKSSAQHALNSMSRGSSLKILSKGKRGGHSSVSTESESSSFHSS

T1 sequence (P61073 whole entry): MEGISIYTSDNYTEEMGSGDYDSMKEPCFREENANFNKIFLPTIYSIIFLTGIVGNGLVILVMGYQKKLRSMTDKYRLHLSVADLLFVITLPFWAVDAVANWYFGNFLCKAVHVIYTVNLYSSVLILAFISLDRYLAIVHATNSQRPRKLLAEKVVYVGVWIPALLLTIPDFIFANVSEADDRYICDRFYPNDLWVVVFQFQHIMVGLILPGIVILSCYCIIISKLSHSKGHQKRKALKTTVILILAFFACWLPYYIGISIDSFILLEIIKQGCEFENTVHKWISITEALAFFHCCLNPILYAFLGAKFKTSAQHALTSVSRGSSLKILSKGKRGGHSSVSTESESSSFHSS
T2 sequence (P61073 whole entry V196E): as the sequence (P61073 whole entry) above, with V196E counted along it
T3 sequence (P61073 whole entry D187V): as the sequence (P61073 whole entry) above, with D187V counted along it
T4 sequence (P61073 whole entry F189V): as the sequence (P61073 whole entry) above, with F189V counted along it

Row | Binder | Chemotaxis Jurkat cells IC50 (M) n=1 (human CXCR4 [1]) [M] | Chemotaxis Jurkat cells IC50 (M) n=2 (human CXCR4 [1]) [M] | cAMP inhibition assay IC50 (M) n=1 (human CXCR4 [1]) [M] | cAMP inhibition assay IC50 (M) n=2 (human CXCR4 [1]) [M] | EC50 (human CXCR4 [2]) [nM] | EC50 (human CXCR4 [3]) [nM] | IC50 (human CXCR4 [4]) [nM] | Chemotaxis IC50 (M) +HSA (human CXCR4 [1]) [M] | Chemotaxis IC50 (M) -HSA (human CXCR4 [1]) [M] | binding result (CXCR4 V196E) | binding result (CXCR4 D187V) | binding result (CXCR4 F189V) | Chemotaxis IC50 (nM) Jurkat (human CXCR4 [1]) | Chemotaxis Jurkat cells IC50 (M) n=3 (human CXCR4 [1]) [M] | binding result (mouse CXCR4)
1 | B1 | 3.3e-09 | 8.1e-10 | 4e-07 | 2.5e-06 | 0.73 | 4 | 4.1 | – | – | – | – | – | – | – | –
2 | B2 | – | – | – | – | 0.2 | – | 5.1 | 1.18e-09 | 1.7e-09 | – | – | – | – | – | –
3 | B3 | – | – | – | – | – | – | – | – | – | binds | binds | binds | – | – | –
4 | B4 | – | – | – | – | – | 3.1 | 3.1 | 2.2e-09 | 2.08e-09 | – | – | – | 3.5 nM and 4.7 nM | – | –
5 | B5 | – | – | – | – | 0.52 | 2.4 | 4.7 | 1.93e-09 | 3.29e-09 | – | – | – | 3.5 nM and 1.2 nM | – | –
6 | B6 | 2.1e-09 | 2.3e-09 | 1.6e-07 | 9.6e-07 | 0.29 | 3.3 | 7.9 | 7.74e-10 | 4.11e-09 | – | – | – | 2.1 nM and 2.3 nM | 4.1e-09 | no binding
7 | B7 | – | – | – | – | 0.22 | – | 3 | 1.12e-09 | 2.78e-09 | – | – | – | 3.5 nM and 1.4 nM | – | no binding
